Source: the supplement of paper PMC9112550, “Optimization of the antimicrobial peptide Bac7 by deep mutational scanning” (BMC Biology, 2022)

System: Escherichia coli TOP10
Experiment: shrunken log2 fold change of peptide-encoding DNA abundance (4.5 h post-induction vs induction); higher = less antimicrobial activity (less host growth inhibition)
Details: time post-induction: 4.5 h; library: site-saturation at positions 5, 18, 19, 20
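Note: peptides expressed intracellularly from a pBAD plasmid library in pooled LB shake-flask culture, induced with 0.3% L-arabinose, DNA abundance read by NGS, three biological replicates, DESeq2 with apeglm shrinkage.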

Sequence | shrunken log2 fold change
RRIRCRPPRLPRPRPRPPFEPRP | 0.136
RRIRTRPPRLPRPRPRPTQYPRP | -0.207
RRIRGRPPRLPRPRPRPGLVPRP | 0.848
RRIRHRPPRLPRPRPRPDMNPRP | -0.178
RRIRHRPPRLPRPRPRPRWNPRP | -0.065
RRIRVRPPRLPRPRPRPEHRPRP | -0.0452
RRIRDRPPRLPRPRPRPTNDPRP | 0.0152
RRIRMRPPRLPRPRPRPVDYPRP | -0.0574
RRIRTRPPRLPRPRPRPMRFPRP | 0.00408
RRIRVRPPRLPRPRPRPRVIPRP | -0.0308
RRIRERPPRLPRPRPRPNKFPRP | -0.143
RRIRVRPPRLPRPRPRPYISPRP | -0.0821
RRIRCRPPRLPRPRPRPPKFPRP | -0.0746
RRIRQRPPRLPRPRPRPASNPRP | -0.00674
RRIRERPPRLPRPRPRPVERPRP | -0.00844
RRIRLRPPRLPRPRPRPGCHPRP | -0.268
RRIRVRPPRLPRPRPRPRFDPRP | 0.048
RRIRVRPPRLPRPRPRPVTGPRP | -0.233
RRIRIRPPRLPRPRPRPQREPRP | 0.0374
RRIRSRPPRLPRPRPRPWWFPRP | 0.0202
RRIRARPPRLPRPRPRPWQSPRP | 0.183
RRIRWRPPRLPRPRPRPNYNPRP | -0.752
RRIRPRPPRLPRPRPRPRNAPRP | 0.39

Sequence | shrunken log2 fold change
RRIRDRPPRLPRPRPRPYDQPRP | -0.473
RRIRKRPPRLPRPRPRPYSGPRP | -0.839
RRIRQRPPRLPRPRPRPRNPPRP | 0.375
RRIRRRPPRLPRPRPRPTFVPRP | 0.998
RRIRWRPPRLPRPRPRPAAVPRP | 0.806
RRIRDRPPRLPRPRPRPKSTPRP | -0.175
RRIRIRPPRLPRPRPRPAMRPRP | 1.37
RRIRKRPPRLPRPRPRPHFLPRP | 0.12
RRIRWRPPRLPRPRPRPPWQPRP | 0.289
RRIRHRPPRLPRPRPRPGEVPRP | 0.0396
RRIRARPPRLPRPRPRPTYFPRP | 0.161
RRIRGRPPRLPRPRPRPWMLPRP | 0.0888
RRIRARPPRLPRPRPRPKVWPRP | 0.766
RRIRDRPPRLPRPRPRPANLPRP | -0.0687
RRIRERPPRLPRPRPRPWIHPRP | 0.105
RRIRLRPPRLPRPRPRPWYIPRP | -0.137
RRIRNRPPRLPRPRPRPPYEPRP | -0.18
RRIRIRPPRLPRPRPRPDFLPRP | -0.725
RRIRFRPPRLPRPRPRPGDQPRP | 0.0789
RRIRPRPPRLPRPRPRPIVRPRP | 0.029
RRIRPRPPRLPRPRPRPKPGPRP | 0.684
RRIRRRPPRLPRPRPRPVHGPRP | 0.335
RRIRRRPPRLPRPRPRPRERPRP | 1.02

Sequence | shrunken log2 fold change
RRIRQRPPRLPRPRPRPGVNPRP | -0.343
RRIRTRPPRLPRPRPRPAYPPRP | -0.072
RRIRPRPPRLPRPRPRPLTNPRP | -0.521
RRIRQRPPRLPRPRPRPVHIPRP | -0.1
RRIRGRPPRLPRPRPRPYGAPRP | -0.00762
RRIRNRPPRLPRPRPRPPGHPRP | 0.463
RRIRTRPPRLPRPRPRPQTVPRP | -0.216
RRIRLRPPRLPRPRPRPNARPRP | 0.1
RRIRARPPRLPRPRPRPVIKPRP | -0.136
RRIRVRPPRLPRPRPRPTNAPRP | -0.211
RRIRQRPPRLPRPRPRPFWIPRP | -0.0587
RRIRMRPPRLPRPRPRPTSGPRP | 1.06
RRIRIRPPRLPRPRPRPKKWPRP | -0.00764
RRIRNRPPRLPRPRPRPWWIPRP | -0.00145
RRIRQRPPRLPRPRPRPYMPPRP | -0.0463
RRIRDRPPRLPRPRPRPSEKPRP | -0.0166
RRIRHRPPRLPRPRPRPEMAPRP | 0.253
RRIRMRPPRLPRPRPRPLDPPRP | 0.146
RRIRNRPPRLPRPRPRPDSCPRP | -0.00192
RRIRYRPPRLPRPRPRPPHPPRP | -0.187
RRIRQRPPRLPRPRPRPHWIPRP | -0.452
RRIRKRPPRLPRPRPRPQIGPRP | -0.0295
RRIRSRPPRLPRPRPRPFEIPRP | 0.0385

Sequence | shrunken log2 fold change
RRIRARPPRLPRPRPRPLTQPRP | 0.209
RRIRFRPPRLPRPRPRPFVLPRP | -0.532
RRIRVRPPRLPRPRPRPFAPPRP | 0.0601
RRIRVRPPRLPRPRPRPTTWPRP | -0.0829
RRIRLRPPRLPRPRPRPLCNPRP | -0.453
RRIRDRPPRLPRPRPRPCYVPRP | -0.116
RRIRYRPPRLPRPRPRPKPPPRP | 0.524
RRIRYRPPRLPRPRPRPYSGPRP | -1
RRIRHRPPRLPRPRPRPEFCPRP | -0.0591
RRIRGRPPRLPRPRPRPRHPPRP | 0.442
RRIRPRPPRLPRPRPRPEPFPRP | 0.454
RRIRMRPPRLPRPRPRPYQVPRP | -0.393
RRIRGRPPRLPRPRPRPTRMPRP | 0.571
RRIRTRPPRLPRPRPRPVCLPRP | -0.398
RRIRRRPPRLPRPRPRPAHCPRP | 0.804
RRIRLRPPRLPRPRPRPPYHPRP | -0.317
RRIRVRPPRLPRPRPRPWKIPRP | -0.0261
RRIRKRPPRLPRPRPRPWLYPRP | 0.00941
RRIRWRPPRLPRPRPRPNCDPRP | 0.14
RRIRERPPRLPRPRPRPTKPPRP | -0.394
RRIRARPPRLPRPRPRPYEDPRP | -0.117
RRIRYRPPRLPRPRPRPDLDPRP | -0.181
